Laboratory results: US20240000957A1 (published 2024)
*1 amine or outer side, *2 acyl side, *3 side chain or, on linkers, in order; H or OH if unused. Bridges are numbered along the chain shown (N, C = ends). Where no end group is shown, it is not given here. [ ]: non-standard residue; d: D form. TATA = O=C(CC[*:1])N1CN(C(=O)CC[*:2])CN(C(=O)CC[*:3])C1; Hyp = O=C(O)[C@@H]1C[C@@H](O)CN1; hArg = N=C(N)NCCCC[C@H](N)C(=O)O; βAla = NCCC(=O)O; Sar = CNCC(=O)O

B1: BCY6031 (peptide)
peptide: AXDCPLVNPLCLHPGWTC
modifications: not fully specified; as BCY6014 (N-terminal (β-Ala)-Sar10; HArg; TATA scaffold on the 3 Cys) + DM1-SS-
notes: Bicycle drug conjugate (BDC)
B2: BCY6032 (peptide)
peptide: AXDCPLVNPLCLHPGWTC
modifications: not fully specified; as BCY6014 (N-terminal (β-Ala)-Sar10; HArg; TATA scaffold on the 3 Cys) + DM1-SS-(Me)-
notes: Bicycle drug conjugate (BDC)
B3: BCY6039 (peptide)
peptide: AXDCPLVNPLCLHPGWTC
modifications: not fully specified; as BCY6014 (N-terminal (β-Ala)-Sar10; HArg; TATA scaffold on the 3 Cys) + DM1-(Me)-SS-(Me)-
notes: Bicycle drug conjugate (BDC)
B4: BCY6105 (peptide)
peptide: AXDCPLVNPLCLHPGWTC
modifications: not fully specified; as BCY6014 (N-terminal (β-Ala)-Sar10; HArg; TATA scaffold on the 3 Cys) + MMAE-Ala-Ala-Asn
notes: Bicycle drug conjugate (BDC)
B5: BCY6106 (peptide)
peptide: AXDCPLVNPLCLHPGWTC
modifications: not fully specified; as BCY6014 (N-terminal (β-Ala)-Sar10; HArg; TATA scaffold on the 3 Cys) + MMAE-D-Ala-Phe-Lys-
notes: Bicycle drug conjugate (BDC)
B6: BCY6107 (peptide)
peptide: AXDCPLVNPLCLHPGWTC
modifications: not fully specified; as BCY6014 (N-terminal (β-Ala)-Sar10; HArg; TATA scaffold on the 3 Cys) + MMAE-Glu-Pro-Cit-Gly-hPhe-Tyr-Leu-
notes: Bicycle drug conjugate (BDC)
B7: BCY6061 (peptide)
peptide: AXDCPLVNPLCLHPGWTC
modifications: not fully specified; as BCY6014 (N-terminal (β-Ala)-Sar10; HArg; TATA scaffold on the 3 Cys) + ValLys-MMAE
notes: Bicycle drug conjugate (BDC)
B8: BCY6064 (peptide)
peptide: AXDCPLVNPLCLHPGWTC
modifications: not fully specified; as BCY6014 (N-terminal (β-Ala)-Sar10; HArg; TATA scaffold on the 3 Cys) + Non-cleavable (DM1)
notes: Bicycle drug conjugate (BDC)
B9: BCY6077 (peptide)
peptide: AXDCPLVNPLCLHPGWTC
modifications: not fully specified; as BCY6014 (N-terminal (β-Ala)-Sar10; HArg; TATA scaffold on the 3 Cys) + DM1-SS-(Me)-SO3H-
notes: Bicycle drug conjugate (BDC)
B10: BCY6062 (peptide)
peptide: AXDCPLVNPLCLHPGWTC
modifications: not fully specified; as BCY6014 (N-terminal (β-Ala)-Sar10; HArg; TATA scaffold on the 3 Cys) + D-TrpCit-MMAE
notes: Bicycle drug conjugate (BDC)
B11: BCY6174 (peptide)
peptide: [βAla][Sar][Sar][Sar][Sar][Sar][Sar][Sar][Sar][Sar][Sar]A[hArg]DC[Hyp]LVNPLCLHP[dD]W[hArg]C
modifications: linker 15-22-29 via TATA; not fully specified (N-terminus, C-terminus); also: ValLys-MMAE conjugate, site not given here
notes: Bicycle drug conjugate (BDC)
B12: BCY6136 (peptide)
peptide: [βAla][Sar][Sar][Sar][Sar][Sar][Sar][Sar][Sar][Sar][Sar]A[hArg]DC[Hyp]LVNPLCLHP[dD]W[hArg]C
modifications: linker 15-22-29 via TATA; not fully specified (N-terminus, C-terminus); also: ValCit-MMAE conjugate, site not given here
notes: Bicycle drug conjugate (BDC); also called BT5528
B13: BCY6135 (peptide)
peptide: [βAla][Sar][Sar][Sar][Sar][Sar][Sar][Sar][Sar][Sar][Sar]A[hArg]DC[Hyp]LVNPLCLHP[dD]W[hArg]C
modifications: linker 15-22-29 via TATA; not fully specified (N-terminus, C-terminus); numbers in words are those of the source; also: DM1-SS- conjugate, site not given here
notes: Bicycle drug conjugate (BDC)
B14: BCY6173 (peptide)
peptide: [βAla][Sar][Sar][Sar][Sar][Sar][Sar][Sar][Sar][Sar][Sar]A[hArg]DC[Hyp]LVNPLCLHP[dD]W[hArg]C
modifications: linker 15-22-29 via TATA; not fully specified (N-terminus, C-terminus); numbers in words are those of the source; also: DM1-SS(SO3H)- conjugate, site not given here
notes: Bicycle drug conjugate (BDC)

Biological target: T1, Human EphA2 (Ecto), C-terminal polyHis (Human, UniProt P29317 24-537)
T1 construct: extracellular domain; R&D systems 3035-A2 or in-house
Assay: FP competition vs Reference Compound C

T1 sequence (P29317 24-537): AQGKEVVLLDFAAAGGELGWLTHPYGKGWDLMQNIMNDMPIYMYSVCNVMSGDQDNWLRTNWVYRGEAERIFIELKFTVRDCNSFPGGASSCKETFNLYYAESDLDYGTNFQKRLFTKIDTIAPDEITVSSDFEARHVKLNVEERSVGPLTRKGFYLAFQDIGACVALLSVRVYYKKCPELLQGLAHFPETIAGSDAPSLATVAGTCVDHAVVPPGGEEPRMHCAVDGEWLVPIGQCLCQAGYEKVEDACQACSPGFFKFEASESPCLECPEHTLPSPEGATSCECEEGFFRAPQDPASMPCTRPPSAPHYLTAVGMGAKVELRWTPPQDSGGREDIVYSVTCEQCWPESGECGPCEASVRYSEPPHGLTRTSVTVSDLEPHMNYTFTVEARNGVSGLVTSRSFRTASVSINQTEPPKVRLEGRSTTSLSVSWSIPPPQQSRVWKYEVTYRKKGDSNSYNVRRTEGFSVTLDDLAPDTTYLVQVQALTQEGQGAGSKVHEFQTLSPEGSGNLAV

In order of rising Ki:
1. ACYVGKECAYMNVCA (linker 2-8-14 via TATA; not fully specified (C-terminus)) [Compound 29]  210 nM
2. ACSPTPACAVQNLCA (linker 2-8-14 via TATA; not fully specified (C-terminus)) [Compound 31]  223 nM
3. ACTSCWAYPDSFCA (linker 2-5-13 via TATA; not fully specified (C-terminus)) [Compound 32]  232 nM

Biological target: T2, Mouse EphA2 (Ecto) (Mouse, UniProt Q03145 26-538)
T2 construct: extracellular domain; Fluorescence polarisation assays; not shown: Fc fusion (R&D Systems 639-A2) or C-terminal polyHis (Sino Biological 50586-M08H)
Assay: FP competition vs Reference Compound C

T2 sequence (Q03145 26-538): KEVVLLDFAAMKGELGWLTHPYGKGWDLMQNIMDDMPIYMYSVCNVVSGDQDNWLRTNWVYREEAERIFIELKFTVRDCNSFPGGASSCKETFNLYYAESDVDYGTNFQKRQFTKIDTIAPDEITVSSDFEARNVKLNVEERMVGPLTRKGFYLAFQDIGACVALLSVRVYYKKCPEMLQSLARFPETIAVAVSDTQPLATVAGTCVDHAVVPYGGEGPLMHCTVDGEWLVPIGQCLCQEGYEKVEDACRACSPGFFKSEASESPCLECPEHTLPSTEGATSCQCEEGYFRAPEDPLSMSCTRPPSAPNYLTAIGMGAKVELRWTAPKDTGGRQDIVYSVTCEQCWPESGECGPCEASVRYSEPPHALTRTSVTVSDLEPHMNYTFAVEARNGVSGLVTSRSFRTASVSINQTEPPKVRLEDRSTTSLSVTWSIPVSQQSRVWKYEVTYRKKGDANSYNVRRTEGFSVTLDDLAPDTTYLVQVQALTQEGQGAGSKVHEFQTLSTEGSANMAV

In order of rising Ki:
1. B1  34.7 nM
2. B2  35.9 nM

Biological target: T1, Human EphA2 (Ecto), C-terminal polyHis
Assay: FP competition vs Reference Compound C
Remark: another data set of the same source

In order of falling Ki:
1. B1  12.6 nM
2. B2  11.4 nM

Biological target: T1, Human EphA2 (Ecto), C-terminal polyHis
Assay: FP competition vs Reference Compound A

In order of rising Ki:
1. ACYVGKECAYMNVCA (linker 2-8-14 via TATA; not fully specified (C-terminus)) [Compound 29]  87.7 nM
2. ACQPSNHCAFMNYCA (linker 2-8-14 via TATA) [Compound 30]  137 nM
3. ACTSCWAYPDSFCA (linker 2-5-13 via TATA; not fully specified (C-terminus)) [Compound 32]  151 nM

Biological target: T1, Human EphA2 (Ecto), C-terminal polyHis
Assay: FP competition vs Reference Compound C (Study 2)

In order of falling Ki:
1. B6  19.2 nM
2. B5  12.9 nM
3. B3  9.4 nM
4. B4  8.86 nM

Biological target: T1, Human EphA2 (Ecto), C-terminal polyHis
Assay: FP competition vs Reference Compound B

In order of falling Ki:
1. ACQPSNHCAFMNYCA (linker 2-8-14 via TATA) [Compound 30]  187 nM
2. ACSPTPACAVQNLCA (linker 2-8-14 via TATA; not fully specified (C-terminus)) [Compound 31]  177 nM
3. ACYVGKECAYMNVCA (linker 2-8-14 via TATA; not fully specified (C-terminus)) [Compound 29]  107 nM

Biological target: T2, Mouse EphA2 (Ecto)
Assay: FP competition vs Reference Compound C (Study 2)

In order of rising Ki:
1. B10  20.3 nM
2. B9  25.3 nM
3. B7  32.3 nM
4. B1  35.1 nM
5. B2  35.9 nM
6. B8  40.7 nM

Biological target: T3, Rat EphA2 (ligand binding), C-terminal polyHis (Rat)
T3 construct: In-house
Assay: FP competition vs Reference Compound C (Study 2)

In order of falling Ki:
1. B1  20 nM
2. B7  14.2 nM
3. B12  3.2 nM
4. B11  3 nM
5. B13  2.9 nM
6. B14  2.5 nM

Biological target: T1, Human EphA2 (Ecto), C-terminal polyHis
Assay: FP competition vs Reference Compound C (Study 2)
Remark: another data set of the same source

In order of falling Ki:
1. B10  12.9 nM
2. B1  12.5 nM
3. B8  12.5 nM
4. B7  12 nM
5. B2  11.4 nM
6. B9  6.5 nM
